B1: H2-Kb / Ed40 (parent complex)
chain 1: GDSVTQTEGPVTVSESESLIINCTYSATSIAYPNLFWYVRYPGEGLQLLLKVITAGQKGSSRGFEATYNKETTSFHLQKASVQESDSAVYYCALGDGYTGNYKYVFGAGTRLKVIA
chain 2: DSGVVQSPRHIIKEKGGRSVLTCIPISGHSNVVWYQQTLGKELKFLIQHYEKVERDKGFLPSRFSVQQFDDYHSEMNMSALELEDSAMYFCASSGASAETLYFGSGTRLTVL
chain 3: not shown
chain 4: IQKTPQIQVYSRHPPENGKPNILNCYVTQFHPPHIEIQMLKNGKKIPKVEMSDMSFSKDWSFYILAHTEFTPTETDTYACRVKHDSMAEPKTVYWDRDM
chain 5: SIINFEKL
B2: H2-Kb / Ed16-30 (parent complex)
chain 1: GEQVEQRPPHLSVREGDSAVIICTYTDPNSYYFFWYKQEPGAGLQLLMKVFSSTEINEGQGFTVLLNKKDKQLSLNLTAAHPGDSAVYFCAVSEPSSGQKLVFGQGTILKVYL
chain 2: EAAVTQSPRNKVAVTGGKVTLSCNQTNNHNNMYWYRQDTGHGLRLIHYSYGAGSTEKGDIPDGYKASRPSQENFSLILELATPSQTSVYFCAGRDTGQLYFGEGSKLTVL
chain 3: not shown
chain 4: B1 chain 4
chain 5: SIINFEKL

Variants of: B1
Experiment: % of reporter cells activated (NFAT-GFP), raw
Note: test concentration or dose not given here.

| Variant | ratio to parent |
| --- | --- |
| chain 5 I3V | 0.69 |
| chain 5 I3C | 0.523 |
| chain 5 I3Y | 0.762 |
| chain 5 I3G | 0.319 |
| chain 5 I3T | 0.423 |
| chain 5 K7T | 0.224 |
| chain 5 K7R | 0.622 |
| chain 5 K7L | 0.192 |
| chain 5 L8G | 0.595 |
| chain 5 L8T | 0.885 |
| chain 5 E6H | 0.172 |
| chain 5 E6G | 0.464 |
| chain 5 F5E | 0.52 |
| chain 5 S1K | 0.399 |
| chain 5 S1D | 0.892 |
| chain 5 S1W | 0.335 |
| chain 5 S1G | 1 |
| chain 5 S1Q | 0.681 |
| chain 5 N4Y | 0.0157 |
| chain 5 N4T | 0.00333 |
| chain 5 I2G | 0.922 |
| chain 5 I2S | 1.1 |

Variants of: B2
Experiment: % of reporter cells activated (NFAT-GFP), raw

| Variant | ratio to parent |
| --- | --- |
| chain 5 I3C | 0.642 |
| chain 5 I3D | 0.562 |
| chain 5 I3T | 0.613 |
| chain 5 I3P | 0.64 |
| chain 5 I3K | 0.779 |
| chain 5 I3Q | 0.322 |
| chain 5 I3G | 0.137 |
| chain 5 I3W | 0.537 |
| chain 5 I3M | 0.425 |
| chain 5 I3R | 0.104 |
| chain 5 I3S | 0.393 |
| chain 5 I3F | 0.69 |
| chain 5 I3V | 1.11 |
| chain 5 I3A | 0.413 |
| chain 5 I3Y | 0.607 |
| chain 5 I3H | 0.558 |
| chain 5 I3N | 0.507 |
| chain 5 K7T | 0.716 |
| chain 5 K7P | 0.796 |
| chain 5 K7S | 0.842 |
| chain 5 K7C | 0.563 |
| chain 5 K7G | 0.381 |
| chain 5 K7A | 0.499 |
| chain 5 K7H | 0.478 |
| chain 5 K7V | 0.687 |
| chain 5 K7E | 0.0275 |

| Variant | ratio to parent |
| --- | --- |
| chain 5 K7Y | 0.265 |
| chain 5 K7L | 0.401 |
| chain 5 K7D | 0.162 |
| chain 5 K7W | 0.74 |
| chain 5 K7I | 0.61 |
| chain 5 S1Q | 0.323 |
| chain 5 S1D | 0.337 |
| chain 5 S1R | 0.184 |
| chain 5 S1K | 0.144 |
| chain 5 S1H | 0.259 |
| chain 5 S1P | 0.0976 |
| chain 5 S1T | 0.386 |
| chain 5 S1L | 0.313 |
| chain 5 S1E | 0.0535 |
| chain 5 S1A | 0.631 |
| chain 5 S1Y | 0.55 |
| chain 5 S1W | 0.128 |
| chain 5 S1F | 0.025 |
| chain 5 S1G | 0.485 |
| chain 5 S1V | 0.362 |
| chain 5 S1M | 0.632 |
| chain 5 S1C | 0.186 |
| chain 5 S1N | 0.522 |
| chain 5 F5N | 0.969 |
| chain 5 F5L | 1.21 |
| chain 5 F5H | 1.21 |

| Variant | ratio to parent |
| --- | --- |
| chain 5 F5K | 1.04 |
| chain 5 F5G | 0.976 |
| chain 5 F5V | 1.25 |
| chain 5 F5E | 0.752 |
| chain 5 F5I | 1.11 |
| chain 5 F5R | 1.19 |
| chain 5 F5P | 0.769 |
| chain 5 F5Q | 1.25 |
| chain 5 F5Y | 1.14 |
| chain 5 F5C | 1.23 |
| chain 5 F5M | 1.28 |
| chain 5 I2L | 1.33 |
| chain 5 I2K | 0.978 |
| chain 5 I2D | 1.31 |
| chain 5 I2H | 0.72 |
| chain 5 I2T | 1.18 |
| chain 5 I2V | 1.33 |
| chain 5 I2A | 1.2 |
| chain 5 I2Q | 0.726 |
| chain 5 I2P | 1.06 |
| chain 5 I2M | 1.31 |
| chain 5 I2Y | 0.774 |
| chain 5 I2S | 1.19 |
| chain 5 I2N | 0.951 |
| chain 5 I2G | 1.25 |
| chain 5 I2E | 1.21 |

| Variant | ratio to parent |
| --- | --- |
| chain 5 L8C | 0.731 |
| chain 5 L8G | 0.904 |
| chain 5 L8R | 1.04 |
| chain 5 L8P | 0.836 |
| chain 5 L8H | 1.06 |
| chain 5 L8F | 1.12 |
| chain 5 L8T | 1.09 |
| chain 5 L8N | 0.798 |
| chain 5 L8M | 1.08 |
| chain 5 L8Y | 1.13 |
| chain 5 L8K | 1 |
| chain 5 L8S | 1.04 |
| chain 5 L8A | 1.04 |
| chain 5 L8Q | 1.13 |
| chain 5 L8I | 1.19 |
| chain 5 E6I | 0.00701 |
| chain 5 E6K | 0.503 |
| chain 5 E6Q | 0.745 |
| chain 5 E6D | 1.28 |
| chain 5 E6R | 0.363 |
| chain 5 E6A | 0.508 |
| chain 5 E6G | 0.543 |
| chain 5 E6C | 0.197 |
| chain 5 E6M | 0.399 |
| chain 5 E6F | 0.35 |
| chain 5 E6S | 0.609 |

| Variant | ratio to parent |
| --- | --- |
| chain 5 E6N | 0.588 |
| chain 5 E6L | 0.387 |
| chain 5 E6Y | 0.308 |
| chain 5 E6P | 0.508 |
| chain 5 E6T | 0.545 |
| chain 5 E6H | 0.488 |
| chain 5 N4A | 0.0158 |
| chain 5 N4L | 0.507 |
| chain 5 N4R | 0.318 |
| chain 5 N4I | 0.0453 |
| chain 5 N4V | 0.0105 |
| chain 5 N4H | 0.165 |
| chain 5 N4W | 0.0129 |
| chain 5 N4D | 0.9 |
| chain 5 N4P | 0.121 |
| chain 5 N4S | 0.0223 |
| chain 5 N4T | 0.0259 |
| chain 5 N4C | 0.0363 |
| chain 5 N4E | 0.00872 |
| chain 5 N4M | 0.0762 |
| chain 5 N4F | 0.00803 |
| chain 5 N4Q | 0.0901 |
| chain 5 N4G | 0.0285 |
| chain 5 N4K | 0.0853 |
